Test results published in patent EP4786495A1 (Nanjing Leads Biolabs Co., Ltd., dated 2026).

T1: human APRIL protein (ACRO Biosystems, Cat. No.: APL-H52D1) (human, UniProt O75888 115-250, limits assumed)
T1 sequence (looked up): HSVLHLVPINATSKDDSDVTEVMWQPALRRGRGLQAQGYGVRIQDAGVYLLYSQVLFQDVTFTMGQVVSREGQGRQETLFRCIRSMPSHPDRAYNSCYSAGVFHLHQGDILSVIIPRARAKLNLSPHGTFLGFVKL

T2: human BDCA2 protein (Kactus Biosystems, Cat# BCA-HM402) (human, UniProt Q8WTT0 45-213)
T2 construct: also called Human BDCA2-His
T2 sequence: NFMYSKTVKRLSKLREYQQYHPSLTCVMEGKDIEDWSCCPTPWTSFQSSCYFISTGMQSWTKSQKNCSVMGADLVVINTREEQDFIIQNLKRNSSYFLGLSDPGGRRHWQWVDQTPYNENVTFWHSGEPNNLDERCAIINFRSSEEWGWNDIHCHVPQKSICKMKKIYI


Columns and labels:
[1] = molecular target: T3, human BAFF protein (ACRO Biosystems, Cat. No.: BAF-H52D4) (human, UniProt Q9Y275 134-285); experiment: BLI Octet RED96e, protein captured on AHC sensor, BAFF 1.56-100 nM in solution
[2] = molecular target: T1, human APRIL protein (ACRO Biosystems, …); experiment: BLI Octet RED96e, protein captured on AHC sensor, APRIL 1.56-100 nM in solution
[3] = molecular target: T1, human APRIL protein (ACRO Biosystems, …); experiment: BLI Octet RED96e, protein captured on AHC sensor, APRIL 100 nM in solution
[4] = molecular target: T1, human APRIL protein (ACRO Biosystems, …); experiment: BLI Octet RED96e, protein captured on AHC sensor, APRIL 1.56-100 nM in solution; remark: listed apart in the source
[5] = molecular target: T2, human BDCA2 protein (Kactus Biosystems, …); experiment: BLI Octet RED96e, protein captured on AHC sensor, BDCA2 100 nM in solution
[6] = molecular target: T3, human BAFF protein (ACRO Biosystems, …); experiment: BLI Octet RED96e, protein captured on AHC sensor, BAFF 100 nM in solution
[7] = molecular target: T3, human BAFF protein (ACRO Biosystems, …); experiment: BLI Octet RED96e, protein captured on AHC sensor, BAFF 1.56-100 nM in solution; remark: listed apart in the source
[8] = molecular target: T2, human BDCA2 protein (Kactus Biosystems, …); experiment: BLI Octet RED96e, antibody captured on AHC sensor, BDCA2 100 nM in solution
[9] = molecular target: T2, human BDCA2 protein (Kactus Biosystems, …); experiment: BLI Octet RED96, antibody captured on AHC sensor, BDCA2 50 nM in solution
[10] = molecular target: T2, human BDCA2 protein (Kactus Biosystems, …); experiment: BLI Octet RED96e, fusion protein captured on AHC sensor, BDCA2 1.56-100 nM in solution
[11] = molecular target: T4, human FcRn protein (ACRO Biosystems, Cat. No.: FCM-H82W4) (human, UniProt P55899 24-297; P61769 21-119); experiment: BLI Octet RED96e, FcRn on SA sensor, fusion protein 3.13-200 nM; binding pH 6.0, dissociation pH 7.4
[12] = molecular target: T4, human FcRn protein (ACRO Biosystems, …); experiment: BLI Octet RED96e, FcRn on SA sensor, fusion protein 3.13-200 nM; binding pH 6.0, dissociation pH 6.0
[13] = molecular target: T2, human BDCA2 protein (Kactus Biosystems, …); experiment: BLI Octet RED96e, fusion protein captured on AHC sensor, BDCA2 1.56-100 nM in solution; remark: listed apart in the source

Kd [1]	koff [1]	kon [1]	Kd [2]	koff [2]	kon [2]	Kd [3]	Response (nm) [3]	koff [3]	kon [3]	Kd [4]	Response (nm) [5]	kon [5]	Kd [6]	Response (nm) [6]	koff [6]	kon [6]	Kd [7]	koff [7]	kon [7]	Binder	also measured
1.47 nM	0.000475 s⁻¹	323000 M⁻¹ s⁻¹	2.05 nM	0.00139 s⁻¹	678000 M⁻¹ s⁻¹	2.08 nM	0.199 nm	0.00141 s⁻¹	681000 M⁻¹ s⁻¹	2.05 nM	-0.0175 nm	95600 M⁻¹ s⁻¹	1.1 nM	0.319 nm	0.000262 s⁻¹	239000 M⁻¹ s⁻¹	1.47 nM	0.000475 s⁻¹	323000 M⁻¹ s⁻¹	control antibody telitacicept (Fc fusion, TACI-Fc fusion control; also called TACI fusion protein telitacicept) SRVDQEERFPQGLWTGVAMRSCPEEQYWDPLLGTCMSCKTICNHQSQRTCAAFCRSLSCRKEQGKFYDHLLRDCISCASICGQHPKQCAYFCENKLRSPVNLPPELDKTHTCPPCPAPEAEGAPSVFLFPPKPKDTLMISRTPEVTCVVVDVSHEDPEVKFNWYVDGVEVHNAKTKPREEQYNSTYRVVSVLTVLHQDWLNGKEYKCKVSNKALPSSIEKTISKAKGQPREPQVYTLPPSRDELTKNQVSLTCLVKGFYPSDIAVEWESNGQPENNYKTTPPVLDSDGSFFLYSKLTVDKSRWQQGNVFSCSVMHEALHNHYTQKSLSLSPGK	koff [4]: 0.00139 s⁻¹; kon [4]: 678000 M⁻¹ s⁻¹
			0.679 nM	0.00059 s⁻¹	868000 M⁻¹ s⁻¹	0.246 nM	0.252 nm	0.000214 s⁻¹	873000 M⁻¹ s⁻¹		0.481 nm	154000 M⁻¹ s⁻¹	< 0.001 nM	0.338 nm	< 1e-07 s⁻¹	407000 M⁻¹ s⁻¹	< 0.001 nM	< 1e-07 s⁻¹	571000 M⁻¹ s⁻¹	bispecific fusion protein BI-9D2-A (bispecific antibody, human IgG1, kappa, also called heavy chain 37F2C6-HuVH3-D2) heavy: not shown light: ETVLTQSPATLSLSPGERATLSCRASSSVSYMYWFQQKPGQAPRLLIYSTSNLASGIPARFSGSGSGTDYTLTISSLEPEDFAVYYCQQRRNYPHTFGGGTKVEIKRTVAAPSVFIFPPSDEQLKSGTASVVCLLNNFYPREAKVQWKVDNALQSGNSQESVTEQDSKDSTYSLSSTLTLSKADYEKHKVYACEVTHQGLSSPVTKSFNRGEC	Kd [5]: < 0.001 nM; koff [5]: < 1e-07 s⁻¹; Kd [10]: < 0.001 nM; koff [10]: < 1e-07 s⁻¹; kon [10]: 88800 M⁻¹ s⁻¹
0.0384 nM	1.97e-05 s⁻¹	515000 M⁻¹ s⁻¹								< 0.001 nM										bispecific fusion protein having YTE mutations in the Fc region BI-9ND2-A-YTE (bispecific antibody, human IgG1, kappa, also called heavy chain 37F2C6-HuVH3-ND2-YTE) heavy: SLSCRKEQGKFYDHLLRDCISCASICGQHPKQCAYFCENGGGGSGGGGSGGGGSQVQLVQSGAEVKKPGASVKVSCKASGYTFTDFAVHWVRQAPGQRLEWMGLIGTSSGSTNYNQKFQGRATMTVDKSANTAYMELSSLRSEDTAVYYCARNGYYVGYYALDYWGQGTTVTVSSASTKGPSVFPLAPSSKSTSGGTAALGCLVKDYFPEPVTVSWNSGALTSGVHTFPAVLQSSGLYSLSSVVTVPSSSLGTQTYICNVNHKPSNTKVDKKVEPKSCDKTHTCPPCPAPELLGGPSVFLFPPKPKDTLYITREPEVTCVVVDVSHEDPEVKFNWYVDGVEVHNAKTKPREEQYNSTYRVVSVLTVLHQDWLNGKEYKCKVSNKALPAPIEKTISKAKGQPREPQVYTLPPSRDELTKNQVSLTCLVKGFYPSDIAVEWESNGQPENNYKTTPPVLDSDGSFFLYSKLTVDKSRWQQGNVFSCSVMHEALHNHYTQKSLSLSPGK light: ETVLTQSPATLSLSPGERATLSCRASSSVSYMYWFQQKPGQAPRLLIYSTSNLASGIPARFSGSGSGTDYTLTISSLEPEDFAVYYCQQRRNYPHTFGGGTKVEIKRTVAAPSVFIFPPSDEQLKSGTASVVCLLNNFYPREAKVQWKVDNALQSGNSQESVTEQDSKDSTYSLSSTLTLSKADYEKHKVYACEVTHQGLSSPVTKSFNRGEC	koff [4]: < 1e-07 s⁻¹; kon [4]: 981000 M⁻¹ s⁻¹; Kd [13]: < 0.001 nM; koff [13]: < 1e-07 s⁻¹; kon [13]: 100000 M⁻¹ s⁻¹; Kd [11]: 727 nM; koff [11]: 0.0888 s⁻¹; kon [11]: 122000 M⁻¹ s⁻¹; Kd [12]: 5.12 nM; koff [12]: 0.0062 s⁻¹; kon [12]: 1.21e+06 M⁻¹ s⁻¹

The next lines start with the binder.

Binder	Kd [1]	koff [1]	kon [1]	Kd [2]	koff [2]	kon [2]	Kd [3]	Response (nm) [3]	koff [3]	kon [3]	Kd [4]	Response (nm) [5]	kon [5]	Kd [6]	Response (nm) [6]	koff [6]	kon [6]	Kd [7]	koff [7]	kon [7]	also measured
anti-BDCA2 chimeric antibody 37F2C6 (antibody, human IgG1, kappa, V domains shown) VH: QVLLQQSGPELVRPGVSVKVSCKGSGYTFTDFAVHWVKQSQTKSLEWIGLIGTSSGSTNYNQKFKDKATMTVDKSSNTAYLELARLTSEDSAIYYCARNGYYVGYYALDYWGQGTSVTVSS VL: QTVLTQSPAIMSASPGEKVTITCSASSSVSYMYWFQQKPGTSPKLWIYSTSNLASGVPPRFSGSGSGTSYSLTISRMEAEDAATYYCQQRRNYPHTFGGGTKLEIKR																					Kd [8]: < 0.001 nM; koff [8]: < 1e-07 s⁻¹; kon [8]: 141000 M⁻¹ s⁻¹; Kd [9]: < 0.001 nM; koff [9]: < 1e-07 s⁻¹; kon [9]: 161000 M⁻¹ s⁻¹
anti-BDCA2 chimeric antibody 26H10A11-1 (antibody, human IgG1, kappa, V domains shown) VH: DVKLVESGGGLVKPGGSLKLSCAASGFTFSSSTMSWVRQTPEKRLEWVATTGGGGSYTYNPDSVKGRFTISRDNAKNTLYLQMSSLRSEDTAMYYCTRDRYDGYYFSMDFWGQGTSVTVSS VL: not shown																					Kd [9]: 0.503 nM; koff [9]: 6.16e-05 s⁻¹; kon [9]: 123000 M⁻¹ s⁻¹
bispecific fusion protein BI-9ND2-A (bispecific antibody, human IgG1, kappa, also called heavy chain 37F2C6-HuVH3-3N-D2) heavy: not shown light: ETVLTQSPATLSLSPGERATLSCRASSSVSYMYWFQQKPGQAPRLLIYSTSNLASGIPARFSGSGSGTDYTLTISSLEPEDFAVYYCQQRRNYPHTFGGGTKVEIKRTVAAPSVFIFPPSDEQLKSGTASVVCLLNNFYPREAKVQWKVDNALQSGNSQESVTEQDSKDSTYSLSSTLTLSKADYEKHKVYACEVTHQGLSSPVTKSFNRGEC				0.415 nM	0.000321 s⁻¹	774000 M⁻¹ s⁻¹	< 0.001 nM	0.397 nm	< 1e-07 s⁻¹	722000 M⁻¹ s⁻¹		0.449 nm	112000 M⁻¹ s⁻¹	< 0.001 nM	0.49 nm	< 1e-07 s⁻¹	438000 M⁻¹ s⁻¹	0.147 nM	7.23e-05 s⁻¹	492000 M⁻¹ s⁻¹	Kd [5]: < 0.001 nM; koff [5]: < 1e-07 s⁻¹; Kd [11]: 3140 nM; koff [11]: 0.0842 s⁻¹; kon [11]: 26800 M⁻¹ s⁻¹; Kd [12]: 20.1 nM; koff [12]: 0.035 s⁻¹; kon [12]: 1.74e+06 M⁻¹ s⁻¹; Kd [10]: < 0.001 nM; koff [10]: < 1e-07 s⁻¹; kon [10]: 86600 M⁻¹ s⁻¹
